Results reported in US10293026B2, “Agent for preventing or treating demyelinating disease” (Osaka University, priority 2014, dated 2019).

Columns and labels:
[1] = tested on: oligodendrocyte precursor cells; assay: BrdU uptake by oligodendrocyte precursor cells with recombinant FGFs (Example 3); type: cell-based, C57BL/6j mice; conditions: FGF at 10, 30 or 100 ng/ml, vs saline control; FIG. 3
Experimental: Recombinant FGF15 (Abcam), FGF21 (R&D), or FGF23 (R&D) was diluted in saline solution immediately before use to prepare an each FGF-containing solution. Oligodendrocyte precursor cells were harvested from C57BL/6j mice (postnatal day 1-old) brains, as in Example 1.
(§1) Initially, the oligodendrocyte precursor cells were seeded in a poly-L-lysinde (Sigma)-coated plastic tissue culture dish, and cultured in the following medium for 1 day (37° C., 5% CO2). The medium used was DMEM containing 4 mM L-gludamine (Sigma), 1 mM sodium pyruvate (Sigma), 0.1% bovine serum albumin (Sigma), 50 μg/ml apo-Transferrin (Sigma), 5 μg/ml insulin (Sigma), 30 nM sodium selenite (Sigma), 10 nM biotin (Sigma), 10 nM hydrocortisone (Sigma), 10 ng/ml Platelet-Derived Growth Factor-AA (Peprotech), and 10 ng/ml basic fibroblast growth factor (Peprotech). Thereafter, each type of FGF-containing solution was added to the culture medium of oligodendrocyte precursor cells such that the concentration of each type of FGF was 10 ng/ml, 30 ng/ml, or 100 ng/ml, and the cells were cultured at 37° C. for 24 hours. BrdU was subsequently added and cultured at 37° C. for 24 hours, and then the cells were collected; the BrdU uptake was then detected using the cell proliferation ELISA, BrdU colorimetric kit (Roche). As a control, an equivalent amount of saline solution was used instead of the FGF21-containing solution, and the BrdU uptake was measured under the same conditions as those described above. This experiment studied three cases for each group.

[2] = tested on: oligodendrocyte precursor cells in demyelination model mice; assay: PDGFRα and Ki67 double-positive cells in spinal cord of demyelination model mice, osmotic pump administration (Example 4); type: in vivo, C57BL/6j mice; conditions: continuous local administration by osmotic pump for 7 days, 350 ng in total, vs saline, p<0.05, FIG. 4
Experimental: Demyelination model mice were produced by topically administering 2 μl per mouse of lysophosphatidylcholine diluted to 1% (w/v) in saline solution into the spinal cord of C57BL/6j mice (female, 7-week-old).
Osmotic pumps (ALZET) were filled with an FGF21-containing solution prepared by diluting recombinant FGF21 (R&D) to 4.17 μg/ml in saline solution, a cannula was attached to the tip of each pump, and the tip was attached to the site of lysophosphatidylcholine administration in each demyelination model mouse to continuously administer FGF21. After 7 days, the demyelination model mice were anesthetized and transcardially perfused with saline solution, and spinal cord tissue was harvested. Ultimately, 350 ng of FGF21 was administered. The spinal cord tissue was fixed with a 4% paraformaldehyde solution, which was then replaced with a 30% sucrose solution, and subsequently, frozen thin sections were prepared. The sections were immunostained using an anti-PDGFRα antibody and an anti-Ki67 antibody, and the number of PDGFRα and Ki67 double-positive cells in the sections was counted. PDGFRα is a marker for oligodendrocyte precursor cells, and Ki67 is a cell proliferation marker. As a control, saline solution was used, and the number of PDGFRα and Ki67 double-positive cells was counted under the same conditions as those described above. […]

[3] = tested on: oligodendrocyte precursor cells in demyelination model mice; assay: PDGFRα and Ki67 double-positive cells in spinal cord of demyelination model mice, subcutaneous administration (Example 5); type: in vivo, C57BL/6j mice; conditions: subcutaneous 500 ng/kg body weight per day for 2 weeks, vs saline with 0.5% BSA, FIG. 5
Experimental: Demyelination model mice were produced by performing a laminectomy at the 11th and 12th thoracic vertebrae in C57BL/6j mice (female, 7-week-old), and topically administering 2 μl of lysophosphatidylcholine diluted to 1% (w/v) in saline solution at a depth of 2 mm into the midline of the spinal column.
An FGF21-containing solution prepared by diluting recombinant FGF21 (R&D) in saline solution was subcutaneously administered for 2 weeks at a dose of 500 ng/kg body weight of FGF21 per day. After 2 weeks, the demyelination model mice were anesthetized and transcardially perfused with saline solution, and spinal cord tissue was harvested. The harvested spinal cord tissue was fixed with a 4% paraformaldehyde solution, which was then replaced with a 30% sucrose solution, and subsequently, frozen thin sections were prepared. The sections were immunostained using an anti-PDGFRα antibody and an anti-Ki67 antibody, and the number of PDGFRα and Ki67 double-positive cells in the sections was counted. As a control, a saline solution containing 0.5% BSA was used, and the number of PDGFRα and Ki67 double-positive cells was counted under the same conditions as those described above. This experiment conducted the study using five or six mice for each group.

[4] = tested on: myelin sheath in demyelination model mice; assay: MBP positive regions in spinal cord of demyelination model mice (Example 6); type: in vivo, C57BL/6j mice; conditions: subcutaneous 500 ng/kg per day for 2 weeks from 7 days after lysophosphatidylcholine, one mouse per group, FIG. 6
Experimental: Demyelination model mice were created as in Example 5 above. An FGF21-containing solution prepared by diluting recombinant FGF21 (R&D) in saline solution was subcutaneously administered for 2 weeks at a dose of 500 ng/kg body weight of FGF21 per day, to the demyelination model mice after 7 days from the administration of lysophosphatidylcholine. After 2 weeks, the demyelination model mice were anesthetized and transcardially perfused with saline solution, and spinal cord tissue was harvested. Sections were prepared from the harvested spinal cord tissue as in Example 5 above and then immunostained using an anti-MBP antibody, and MBP positive regions in the sections were counted. As a control, a saline solution containing 0.5% BSA was used, and MBP positive regions were counted under the same conditions as those described above. This experiment conducted the study using one mouse for each group.

[5] = tested on: human oligodendrocyte precursor cells; assay: BrdU uptake by human oligodendrocyte precursor cells (Example 8); type: cell-based; set-up: dose or concentration left out as unconfirmed; conditions: recombinant human FGF21, human cells, vs saline control; significant difference; FIG. 8
Experimental: Recombinant human FGF21 (R&D) was diluted in saline solution immediately before use to prepare an FGF21-containing solution. Human oligodendrocyte precursor cells (ScienCell) were also prepared.
as §1, with “poly-L-lysinde-coated” for “poly-L-lysinde (Sigma)-coated”, “dish (Greiner Bio-One),” for “dish,”, “(Peprotech),” for “(Peprotech), and”, “(Peprotech) 1 (v/v) %,” for “(Peprotech). Thereafter, each type of FGF-containing solution was added to the culture medium of oligodendrocyte precursor cells such that the concentration of each type of FGF was 10 ng/ml, 30 ng/ml, or 100 ng/ml,”, “penicillin/streptomycin (Life Technologies). […]” for “the cells were cultured at 37° C. for 24 hours.”, “This experiment studied three cases for each group.” left out

B1: FGF21: Recombinant fibroblast growth factor 21 (R&D); the claimed active ingredient promoting oligodendrocyte precursor cell proliferation (protein, listed as Homo sapiens)
chain: MDSDETGFEHSGLWVSVLAGLLLGACQAHPIPDSSPLLQFGGQVRQRYLYTDDAQQTEAHLEIREDGTVGGAADQSPESLLQLKALKPGVIQILGVKTSRFLCQRPDGALYGSLHFDPEACSFRELLLEDGYNVYQSEAHGLPLHLPGNKSPHRDPAPRGPARFLPLPGLPPALPEPPGILAPQPPDVGSSDPLSMVGPSQGRSPSYAS
**Q.** What does the source list for B1?
**A.** BrdU uptake by the oligodendrocyte precursor cells [1]: markedly increased; number of PDGFRα and Ki67 double-positive cells [2]: increased; number of PDGFRα and Ki67 double-positive cells [3]: increased; MBP positive regions [4]: increased; BrdU uptake by the oligodendrocyte precursor cells [5]: markedly increased
